Results reported in the supplement of paper PMC5998384.

Experiments:
[1] = test system: HeLa Kyoto; assay: thermal stability score vs G1/S (z-score of summed log2 fold changes over temperatures); higher = more thermally stable than in G1/S
[2] = test system: HeLa Kyoto; assay: solubility change mitosis vs G1/S (difference of NP-40 vs SDS log2 ratios) (log2 ratio difference); higher = more soluble in mitosis
[3] = test system: HeLa Kyoto; assay: solubility in G1/S (NP-40 vs SDS abundance) (log2 ratio); higher = more soluble; conditions: cell cycle stage: G1/S
[4] = test system: HeLa Kyoto; assay: melting temperature (median over replicates), in situ; higher = more thermally stable
[5] = cell cycle stage: early G1 (4.5 h after nocodazole release)
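For melting temperature (median over replicates), in situ in this document: HeLa Kyoto cells synchronized by double thymidine or nocodazole block, proteins quantified by TMT10plex mass spectrometry, three independent biological replicates.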
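For solubility change mitosis vs G1/S (difference of NP-40 vs SDS log2 ratios) in this document: synchronized HeLa Kyoto cells (double thymidine block for G1/S, nocodazole release for mitosis), protein amounts in NP-40 versus SDS lysates quantified by mass spectrometry, three biological replicates.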
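For solubility in G1/S (NP-40 vs SDS abundance) in this document: HeLa Kyoto cells arrested at G1/S by double thymidine block, proteins quantified by TMT10plex mass spectrometry in mild NP-40 versus SDS extracts, three biological replicates.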
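For thermal stability score vs G1/S (z-score of summed log2 fold changes over temperatures) in this document: synchronized HeLa Kyoto cells, proteins quantified by TMT10plex mass spectrometry, three biological replicates, mitosis taken 0.5 h after nocodazole release, G1/S directly after double thymidine block.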

Row | Sequence | thermal stability score [1, 5] | thermal stability score ([1]; cell cycle stage: mitosis) | solubility change mitosis (log2) [2] | solubility in G1/S (log2) [3] | melting temperature ([4]; cell cycle stage: G1/S) | melting temperature ([4]; cell cycle stage: mitosis)
1 | MEVAVEKAVAAAAAASAAASGGPSAAPSGENEAESRQGPDSERGGEAARLNLLDTCAVCHQNIQSRAPKLLPCLHSFCQRCLPAPQRYLMLPAPMLGSAETPPPVPAPGSPVSGSSPFATQVGVIRCPVCSQECAERHIIDNFFVKDTTEVPSSTVEKSNQVCTSCEDNAEANGFCVECVEWLCKTCIRAHQRVKFTKDHTVRQKEEVSPEAVGVTSQRPVFCPFHKKEQLKLYCETCDKLTCRDCQLLEHKEHRYQFIEEAFQNQKVIIDTLITKLMEKTKYIKFTGNQIQNRIIEVNQNQKQVEQDIKVAIFTLMVEINKKGKALLHQLESLAKDHRMKLMQQQQEVAGLSKQLEHVMHFSKWAVSSGSSTALLYSKRLITYRLRHLLRARCDASPVTNNTIQFHCDPSFWAQNIINLGSLVIEDKESQPQMPKQNPVVEQNSQPPSGLSSNQLSKFPTQISLAQLRLQHMQQQVMAQRQQVQRRPAPVGLPNPRMQGPIQQPSISHQQPPPRLINFQNHSPKPNGPVLPPHPQQLRYPPNQNIPRQAIKPNPLQMAFLAQQAIKQWQISSGQGTPSTTNSTSSTPSSPTITSAAGYDGKAFGSPMIDLSSPVGGSYNLPSLPDIDCSSTIMLDNIVRKDTNIDHGQPRPPSNRTVQSPNSSVPSPGLAGPVTMTSVHPPIRSPSASSVGSRGSSGSSSKPAGADSTHKVPVVMLEPIRIKQENSGPPENYDFPVVIVKQESDEESRPQNANYPRSILTSLLLNSSQSSTSEETVLRSDAPDSTGDQPGLHQDNSSNGKSEWLDPSQKSPLHVGETRKEDDPNEDWCAVCQNGGELLCCEKCPKVFHLSCHVPTLTNFPSGEWICTFCRDLSKPEVEYDCDAPSHNSEKKKTEGLVKLTPIDKRKCERLLLFLYCHEMSLAFQDPVPLTVPDYYKIIKNPMDLSTIKKRLQEDYSMYSKPEDFVADFRLIFQNCAEFNEPDSEVANAGIKLENYFEELLKNLYPEKRFPKPEFRNESEDNKFSDDSDDDFVQPRKKRLKSIEERQLLK [TRIM24] | 2.07 | 4.99 | -0.117 | -0.0643 | 48.8 °C | 50.2 °C
2 | MEVKRLKVTELRSELQRRGLDSRGLKVDLAQRLQEALDAEMLEDEAGGGGAGPGGACKAEPRPVAASGGGPGGDEEEDEEEEEEDEEALLEDEDEEPPPAQALGQAAQPPPEPPEAAAMEAAAEPDASEKPAEATAGSGGVNGGEEQGLGKREEDEPEERSGDETPGSEVPGDKAAEEQGDDQDSEKSKPAGSDGERRGVKRQRDEKDEHGRAYYEFREEAYHSRSKSPLPPEEEAKDEEEDQTLVNLDTYTSDLHFQVSKDRYGGQPLFSEKFPTLWSGARSTYGVTKGKVCFEAKVTQNLPMKEGCTEVSLLRVGWSVDFSRPQLGEDEFSYGFDGRGLKAENGQFEEFGQTFGENDVIGCFANFETEEVELSFSKNGEDLGVAFWISKDSLADRALLPHVLCKNCVVELNFGQKEEPFFPPPEEFVFIHAVPVEERVRTAVPPKTIEECEVILMVGLPGSGKTQWALKYAKENPEKRYNVLGAETVLNQMRMKGLEEPEMDPKSRDLLVQQASQCLSKLVQIASRTKRNFILDQCNVYNSGQRRKLLLFKTFSRKVVVVVPNEEDWKKRLELRKEVEGDDVPESIMLEMKANFSLPEKCDYMDEVTYGELEKEEAQPIVTKYKEEARKLLPPSEKRTNRRNNRNKRNRQNRSRGQGYVGGQRRGYDNRAYGQQYWGQPGNRGGYRNFYDRYRGDYDRFYGRDYEYNRYRDYYRQYNRDWQSYYYHHPQDRDRYYRNYYGYQGYR [HNRNPUL2] | 0.965 | 3.42 | 0.258 | -0.462 | 49.2 °C | 50.1 °C
3 | MEVMNLMEQPIKVTEWQQTYTYDSGIHSGANTCVPSVSSKGIMEEDEACGRQYTLKKTTTYTQGVPPSQGDLEYQMSTTARAKRVREAMCPGVSGEDSSLLLATQVEGQATNLQRLAEPSQLLKSAIVHLINYQDDAELATRALPELTKLLNDEDPVVVTKAAMIVNQLSKKEASRRALMGSPQLVAAVVRTMQNTSDLDTARCTTSILHNLSHHREGLLAIFKSGGIPALVRMLSSPVESVLFYAITTLHNLLLYQEGAKMAVRLADGLQKMVPLLNKNNPKFLAITTDCLQLLAYGNQESKLIILANGGPQALVQIMRNYSYEKLLWTTSRVLKVLSVCPSNKPAIVEAGGMQALGKHLTSNSPRLVQNCLWTLRNLSDVATKQEGLESVLKILVNQLSVDDVNVLTCATGTLSNLTCNNSKNKTLVTQNSGVEALIHAILRAGDKDDITEPAVCALRHLTSRHPEAEMAQNSVRLNYGIPAIVKLLNQPNQWPLVKATIGLIRNLALCPANHAPLQEAAVIPRLVQLLVKAHQDAQRHVAAGTQQPYTDGVRMEEIVEGCTGALHILARDPMNRMEIFRLNTIPLFVQLLYSSVENIQRVAAGVLCELAQDKEAADAIDAEGASAPLMELLHSRNEGTATYAAAVLFRISEDKNPDYRKRVSVELTNSLFKHDPAAWEAAQSMIPINEPYGDDMDATYRPMYSSDVPLDPLEMHMDMDGDYPIDTYSDGLRPPYPTADHMLA [JUP] | -2.2 | -2.86 | -0.103 | -0.169 | 53.5 °C | 52.8 °C
4 | MEVNPPKQEHLLALKVMRLTKPTLFTNIPVTCEEKDLPGDLFNQLMRDDPSTVNGAEVLMLGEMLTLPQNFGNIFLGETFSSYISVHNDSNQVVKDILVKADLQTSSQRLNLSASNAAVAELKPDCCIDDVIHHEVKEIGTHILVCAVSYTTQAGEKMYFRKFFKFQVLKPLDVKTKFYNAESDLSSVTDEVFLEAQIQNMTTSPMFMEKVSLEPSIMYNVTELNSVSQAGECVSTFGSRAYLQPMDTRQYLYCLKPKNEFAEKAGIIKGVTVIGKLDIVWKTNLGERGRLQTSQLQRMAPGYGDVRLSLEAIPDTVNLEEPFHITCKITNCSERTMDLVLEMCNTNSIHWCGISGRQLGKLHPSSSLCLALTLLSSVQGLQSISGLRLTDTFLKRTYEYDDIAQVCVVSSAIKVES [TRAPPC13] | -0.207 | 0.0312 | -0.173 | 0.0799 | 50 °C | 49.9 °C
5 | MEVPAAGRVPAEGAPTAAVAEVRCPGPAPLRLLEWRVAAGAAVRIGSVLAVFEAAASAQSSGASQSRVASGGCVRPARPERRLRSERAGVVRELCAQPGQVVAPGAVLVRLEGCSHPVVMKGLCAECGQDLTQLQSKNGKQQVPLSTATVSMVHSVPELMVSSEQAEQLGREDQQRLHRNRKLVLMVDLDQTLIHTTEQHCQQMSNKGIFHFQLGRGEPMLHTRLRPHCKDFLEKIAKLYELHVFTFGSRLYAHTIAGFLDPEKKLFSHRILSRDECIDPFSKTGNLRNLFPCGDSMVCIIDDREDVWKFAPNLITVKKYVYFQGTGDMNAPPGSRESQTRKKVNHSRGTEVSEPSPPVRDPEGVTQAPGVEPSNGLEKPARELNGSEAATPRDSPRPGKPDERDIWPPAQAPTSSQELAGAPEPQGSCAQGGRVAPGQRPAQGATGTDLDFDLSSDSESSSESEGTKSSSSASDGESEGKRGRQKPKAAPEGAGALAQGSSLEPGRPAAPSLPGEAEPGAHAPDKEPELGGQEEGERDGLCGLGNGCADRKEAETESQNSELSGVTAGESLDQSMEEEEEEDTDEDDHLIYLEEILVRVHTDYYAKYDRYLNKEIEEAPDIRKIVPELKSKVLADVAIIFSGLHPTNFPIEKTREHYHATALGAKILTRLVLSPDAPDRATHLIAARAGTEKVLQAQECGHLHVVNPDWLWSCLERWDKVEEQLFPLRDDHTKAQRENSPAAFPDREGVPPTALFHPMPVLPKAQPGPEVRIYDSNTGKLIRTGARGPPAPSSSLPIRQEPSSFRAVPPPQPQMFGEELPDAQDGEQPGPSRRKRQPSMSETMPLYTLCKEDLESMDKEVDDILGEGSDDSDSEKRRPEEQEEEPQPRKPGTRRERTLGAPASSERSAAGGRGPRGHKRKLNEEDAASESSRESSNEDEGSSSEADEMAKALEAELNDLM [CTDP1] | 1.52 | 2.78 | -0.102 | 0.0911 | 49.2 °C | 50.6 °C
6 | MEVTGVSAPTVTVFISSSLNTFRSEKRYSRSLTIAEFKCKLELLVGSPASCMELELYGVDDKFYSKLDQEDALLGSYPVDDGCRIHVIDHSGARLGEYEDVSRVEKYTISQEAYDQRQDTVRSFLKRSKLGRYNEEERAQQEAEAAQRLAEEKAQASSIPVGSRCEVRAAGQSPRRGTVMYVGLTDFKPGYWIGVRYDEPLGKNDGSVNGKRYFECQAKYGAFVKPAVVTVGDFPEEDYGLDEI [TBCB] | -0.00262 | 0.00665 | 0.119 | 0.266 | 49.5 °C | 50.2 °C
7 | MFAEAAKTTRPCGMAEFKEKPEAPTEQLDVACGQENLPVGAWPPGAAPAPFQYTPDHVVGPGADIDPTQITFPGCICVKTPCLPGTCSCLRHGENYDDNSCLRDIGSGGKYAEPVFECNVLCRCSDHCRNRVVQKGLQFHFQVFKTHKKGWGLRTLEFIPKGRFVCEYAGEVLGFSEVQRRIHLQTKSDSNYIIAIREHVYNGQVMETFVDPTYIGNIGRFLNHSCEPNLLMIPVRIDSMVPKLALFAAKDIVPEEELSYDYSGRYLNLTVSEDKERLDHGKLRKPCYCGAKSCTAFLPFDSSLYCPVEKSNISCGNEKEPSMCGSAPSVFPSCKRLTLETMKMMLDKKQIRAIFLFEFKMGRKAAETTRNINNAFGPGTANERTVQWWFKKFCKGDESLEDEERSGRPSEVDNDQLRAIIEADPLTTTREVAEELNVNHSTVVRHLKQIGKVKKLDKWVPHELTENQKNRRFEVSSSLILRNHNEPFLDRIVTCDEKWILYDNRRRSAQWLDQEEAPKHFPKPILHPKKVMVTIWWSAAGLIHYSFLNPGETITSEKYAQEIDEMNQKLQRLQLALVNRKGPILLHDNARPHVAQPTLQKLNELGYEVLPHPPYSPDLLPTNYHVFKHLNNFLQGKRFHNQQDAENAFQEFVESQSTDFYATGINQLISRWQKCVDCNGSYFD [SETMAR] | 1.42 | 0.689 | -0.0662 | -0.0719 | 51.9 °C | 51.7 °C
8 | MFEEPEWAEAAPVAAGLGPVISRPPPAASSQNKGSKRRQLLATLRALEAASLSQHPPSLCISDSEEEEEERKKKCPKKASFASASAEVGKKGKKKCQKQGPPCSDSEEEVERKKKCHKQALVGSDSAEDEKRKRKCQKHAPINSAQHLDNVDQTGPKAWKGSTTNDPPKQSPGSTSPKPPHTLSRKQWRNRQKNKRRCKNKFQPPQVPDQAPAEAPTEKTEVSPVPRTDSHEARAGALRARMAQRLDGARFRYLNEQLYSGPSSAAQRLFQEDPEAFLLYHRGFQSQVKKWPLQPVDRIARDLRQRPASLVVADFGCGDCRLASSIRNPVHCFDLASLDPRVTVCDMAQVPLEDESVDVAVFCLSLMGTNIRDFLEEANRVLKPGGLLKVAEVSSRFEDVRTFLRAVTKLGFKIVSKDLTNSHFFLFDFQKTGPPLVGPKAQLSGLQLQPCLYKRR [RRP8] | 1.48 | 2.48 | 0.852 | -1.46 | 49.1 °C | 51.7 °C
9 | MFFWCACCLMVAWRVSASDAEHCPELPPVDNSIFVAKEVEGQILGTYVCIKGYHLVGKKTLFCNASKEWDNTTTECRLGHCPDPVLVNGEFSSSGPVNVSDKITFMCNDHYILKGSNRSQCLEDHTWAPPFPICKSRDCDPPGNPVHGYFEGNNFTLGSTISYYCEDRYYLVGVQEQQCVDGEWSSALPVCKLIQEAPKPECEKALLAFQESKNLCEAMENFMQQLKESGMTMEELKYSLELKKAELKAKLL [C4BPB] | 5.14 | 5.56 | -0.0172 | 0.187 | 54.8 °C | 54.8 °C
